The record followed here is PMC3689846.

Assay [1] deals with Core.BaL-GT1 (germline-targeting variant of core gp120) (HIV-1 strain BaL (from the name)). The assay is described as follows: SPR. A general note: SPR reads the build-up and loss of mass on a sensor chip optically.
Assay [2] deals with eOD-GT1 (HIV-1 strain HxB2). The assay is described as follows: SPR.

B1: 12A12 (mature) (antibody, V domains shown)
VH: SQHLVQSGTQVKKPGASVRISCQASGYSFTDYVLHWWRQAPGQGLEWMGWIKPVYGARNYARRFQGRINFDRDIYREIAFMDLSGLRSDDTALYFCARDGSGDDTSWHLDPWGQGTLVIVSA
VL: DIQMTQSPSSLSASVGDRVTITCQAGQGIGSSLQWYQQKPGKAPKLLVHGASNLHRGVPSRFSGSGFHTTFSLTISGLQRDDFATYFCAVLEFFGPGTKVEIK
As to B1, the Kd (in general, the concentration at which binding is half-saturated) in assay [1] is 1 nM.

B2: NIH45-46 (mature) (antibody, V domains shown)
VH: QVRLSQSGGQMKKPGESMRLSCRASGYEFLNCPINWIRLAPGRRPEWMGWLKPRGGAVNYARKFQGRVTMTRDVYSDTAFLELRSLTSDDTAVYFCTRGKYCTARDYYNWDFEHWGRGAPVTVSS
VL: EIVLTQSPATLSLSPGETAIISCRTSQSGSLAWYQQRPGQAPRLVIYSGSTRAAGIPDRFSGSRWGADYNLSISNLESGDFGVYYCQQYEFFGQGTKVQVD
The molecule B2 returned a Kd in assay [2] of 3 nM.
